From US20240317872A1 (WUXI BIOLOGICS IRELAND, published 2024)

Biological target: T1, Human PD-L1 (human, UniProt Q9NZQ7 19-290)
T1 construct: whole, on cells; also called target-A
Test: flow cytometry on CHO-K1 cells expressing human PD-L1
Protocol: Human PD-L1-expressing cells W315-CHOK1.hPro1.C11 (×10^5 cells/well) and 4-1BB-expressing cells WBP342-CHO-K1.hPro1.C1 were incubated with various concentrations of testing antibodies at 4° C. for 1 hour. […] The cells were then washed and resuspended in DPBS with 1% BSA. MFI of the cells was measured by a flow cytometer and analyzed by FlowJo.
As shown in FIG. 7 and Table 7, compared to the reference molecule, the T8311 variants kept the target binding ability very well.

T1 sequence (Q9NZQ7 19-290): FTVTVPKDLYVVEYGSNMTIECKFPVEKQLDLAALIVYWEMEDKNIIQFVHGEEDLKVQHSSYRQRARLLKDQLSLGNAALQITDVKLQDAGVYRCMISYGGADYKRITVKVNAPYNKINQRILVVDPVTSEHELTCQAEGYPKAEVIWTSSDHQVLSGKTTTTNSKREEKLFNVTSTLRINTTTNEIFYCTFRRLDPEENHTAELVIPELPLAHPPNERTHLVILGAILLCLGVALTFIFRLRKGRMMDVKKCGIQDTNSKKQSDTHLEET

| Binder | EC50 [nM] | Top (MFI) |
| --- | --- | --- |
| T8311-U14T2.G25R-47.uIgG1 (bispecific antibody, also called T8311-47) heavy: not shown light 1: SYELTQPPSVSVSPGQTASITCSGSELPKRYAYWYQQKPGQSIVRVIYKDSERPSGISERFSGSSSGNTATLTISGTQAMDEADYYCSSTYGDRKLPIFGGGTKLTVLGQPKAAPSVTLFPPSSEELQANKATLVCLISDFYPGAVTVAWKADSSPVKAGVETTTPSKQSNNKYAASSYLSLTPEQWKSHKSYSCQVTHEGSTVEKTVAPTECS light 2: SYVLTQPPSVSVAPGQTARMTCGGDNIGIKIVHWYQQKAGQAPVLVVYDDNDRPSGIPDRFSGSNSGNTATLTISRVAAGDEADYYCQVWDRRSDHVVFGGGTKLTVLPDIQNPDPAVYQLRDSKSSDKSVCLFTDFDSQTQVCQSKDSDVYITDKCVLDMRSMDFKSNSAVAWSQKSDFACANAFQCSIIPEDTFFPS | 0.186 | 8110 |
| T8311-U14T2.G25R-48.uIgG1 (bispecific antibody, also called T8311-48) heavy: not shown light 1: SYELTQPPSVSVSPGQTASITCSGSELPKRYAYWYQQKPGQSIVRVIYKDSERPSGISERFSGSSSGNTATLTISGTQAMDEADYYCSSTYGDRKLPIFGGGTKLTVLGQPKAAPSVTLFPPSSEELQANKATLVCLISDFYPGAVTVAWKADSSPVKAGVETTTPSKQSNNKYAASSYLSLTPEQWKSHKSYSCQVTHEGSTVEKTVAPTECS light 2: SYVLTQPPSVSVAPGQTARMTCGGDNIGIKIVHWYQQKAGQAPVLVVYDDNDRPSGIPDRFSGSNSGNTATLTISRVAAGDEADYYCQVWDRRSDHVVFGGGTKLTVLPDIQNPDPAVYQLRDSKSSDKSVCLFTDFDSQTQVSQCKDSDVYITDKCVLDMRSMDFKSNSAVAWSQKSDFACANAFQCSIIPEDTFFPS | 0.205 | 8120 |
| T8311-U14T2.G25R-50.uIgG1 (bispecific antibody, also called T8311-50) heavy: not shown light 1: SYELTQPPSVSVSPGQTASITCSGSELPKRYAYWYQQKPGQSIVRVIYKDSERPSGISERFSGSSSGNTATLTISGTQAMDEADYYCSSTYGDRKLPIFGGGTKLTVLGQPKAAPSVTLFPPSSEELQANKATLVCLISDFYPGAVTVAWKADSSPVKAGVETTTPSKQSNNKYAASSYLSLTPEQWKSHKSYSCQVTHEGSTVEKTVAPTECS light 2: SYVLTQPPSVSVAPGQTARMTCGGDNIGIKIVHWYQQKAGQAPVLVVYDDNDRPSGIPDRFSGSNSGNTATLTISRVAAGDEADYYCQVWDRRSDHVVFGGGTKLTVLPDIQNPDPAVYQLRDSKSSDKSVCLFTDFDSQTCVSQSKDSDVYITDKCVLDMRSMDFKSNSAVAWSQKSDFACANAFQNCIIPEDTFFPS | 0.256 | 8130 |
| T8311-U14T2.G25R-51.uIgG1 (bispecific antibody, also called T8311-51) heavy: not shown light 1: SYELTQPPSVSVSPGQTASITCSGSELPKRYAYWYQQKPGQSIVRVIYKDSERPSGISERFSGSSSGNTATLTISGTQAMDEADYYCSSTYGDRKLPIFGGGTKLTVLGQPKAAPSVTLFPPSSEELQANKATLVCLISDFYPGAVTVAWKADSSPVKAGVETTTPSKQSNNKYAASSYLSLTPEQWKSHKSYSCQVTHEGSTVEKTVAPTECS light 2: SYVLTQPPSVSVAPGQTARMTCGGDNIGIKIVHWYQQKAGQAPVLVVYDDNDRPSGIPDRFSGSNSGNTATLTISRVAAGDEADYYCQVWDRRSDHVVFGGGTKLTVLPDIQNPDPAVYQLRDSKSSDKSVCLFTDFDSQTQCSQSKDSDVYITDKCVLDMRSMDFKSNSAVAWSQKSDFACANAFQNCIIPEDTFFPS | 0.213 | 8120 |
| T8311-U14T2.G25R-52.uIgG1 (bispecific antibody, also called T8311-52) heavy: not shown light 1: SYELTQPPSVSVSPGQTASITCSGSELPKRYAYWYQQKPGQSIVRVIYKDSERPSGISERFSGSSSGNTATLTISGTQAMDEADYYCSSTYGDRKLPIFGGGTKLTVLGQPKAAPSVTLFPPSSEELQANKATLVCLISDFYPGAVTVAWKADSSPVKAGVETTTPSKQSNNKYAASSYLSLTPEQWKSHKSYSCQVTHEGSTVEKTVAPTECS light 2: SYVLTQPPSVSVAPGQTARMTCGGDNIGIKIVHWYQQKAGQAPVLVVYDDNDRPSGIPDRFSGSNSGNTATLTISRVAAGDEADYYCQVWDRRSDHVVFGGGTKLTVLPDIQNPDPAVYQLRDSKSSDKSVCLFTDFDSQTQVCQSKDSDVYITDKCVLDMRSMDFKSNSAVAWSQKSDFACANAFQNCIIPEDTFFPS | 0.187 | 8060 |
| T8311-U14T2.G25R-53.uIgG1 (bispecific antibody, also called T8311-53) heavy: not shown light 1: SYELTQPPSVSVSPGQTASITCSGSELPKRYAYWYQQKPGQSIVRVIYKDSERPSGISERFSGSSSGNTATLTISGTQAMDEADYYCSSTYGDRKLPIFGGGTKLTVLGQPKAAPSVTLFPPSSEELQANKATLVCLISDFYPGAVTVAWKADSSPVKAGVETTTPSKQSNNKYAASSYLSLTPEQWKSHKSYSCQVTHEGSTVEKTVAPTECS light 2: SYVLTQPPSVSVAPGQTARMTCGGDNIGIKIVHWYQQKAGQAPVLVVYDDNDRPSGIPDRFSGSNSGNTATLTISRVAAGDEADYYCQVWDRRSDHVVFGGGTKLTVLPDIQNPDPAVYQLRDSKSSDKSVCLFTDFDSQTCVSQSKDSDVYITDKCVLDMRSMDFKSNSAVAWSQKSDFACANAFQNSCIPEDTFFPS | 0.22 | 8150 |
| T8311-U14T2.G25R-56.uIgG1 (bispecific antibody, also called T8311-56) heavy: not shown light 1: SYELTQPPSVSVSPGQTASITCSGSELPKRYAYWYQQKPGQSIVRVIYKDSERPSGISERFSGSSSGNTATLTISGTQAMDEADYYCSSTYGDRKLPIFGGGTKLTVLGQPKAAPSVTLFPPSSEELQANKATLVCLISDFYPGAVTVAWKADSSPVKAGVETTTPSKQSNNKYAASSYLSLTPEQWKSHKSYSCQVTHEGSTVEKTVAPTECS light 2: SYVLTQPPSVSVAPGQTARMTCGGDNIGIKIVHWYQQKAGQAPVLVVYDDNDRPSGIPDRFSGSNSGNTATLTISRVAAGDEADYYCQVWDRRSDHVVFGGGTKLTVLPDIQNPDPAVYQLRDSKSSDKSVCLFTDFDSQCQVSQSKDSDVYITDKCVLDMRSMDFKSNSAVAWSQKSDFACANAFQNSIICEDTFFPS | 0.192 | 8240 |
| T8311-U14T2.G25R-58.uIgG1 (bispecific antibody, also called T8311-58) heavy: not shown light 1: SYELTQPPSVSVSPGQTASITCSGSELPKRYAYWYQQKPGQSIVRVIYKDSERPSGISERFSGSSSGNTATLTISGTQAMDEADYYCSSTYGDRKLPIFGGGTKLTVLGQPKAAPSVTLFPPSSEELQANKATLVCLISDFYPGAVTVAWKADSSPVKAGVETTTPSKQSNNKYAASSYLSLTPEQWKSHKSYSCQVTHEGSTVEKTVAPTECS light 2: SYVLTQPPSVSVAPGQTARMTCGGDNIGIKIVHWYQQKAGQAPVLVVYDDNDRPSGIPDRFSGSNSGNTATLTISRVAAGDEADYYCQVWDRRSDHVVFGGGTKLTVLPDIQNPDCAVYQLRDSKSSDKSVCLFTDFDSQTQVSQSKDSDVYITDKCVLDMRSMDFKSNSAVAWSQKSDFACANAFQNSIIPEDCFFPS | 0.19 | 7990 |
| T8311-U14T2.G25R-59.uIgG1 (bispecific antibody, also called T8311-59) heavy: not shown light 1: SYELTQPPSVSVSPGQTASITCSGSELPKRYAYWYQQKPGQSIVRVIYKDSERPSGISERFSGSSSGNTATLTISGTQAMDEADYYCSSTYGDRKLPIFGGGTKLTVLGQPKAAPSVTLFPPSSEELQANKATLVCLISDFYPGAVTVAWKADSSPVKAGVETTTPSKQSNNKYAASSYLSLTPEQWKSHKSYSCQVTHEGSTVEKTVAPTECS light 2: SYVLTQPPSVSVAPGQTARMTCGGDNIGIKIVHWYQQKAGQAPVLVVYDDNDRPSGIPDRFSGSNSGNTATLTISRVAAGDEADYYCQVWDRRSDHVVFGGGTKLTVLPDIQNPDPCVYQLRDSKSSDKSVCLFTDFDSQTQVSQSKDSDVYITDKCVLDMRSMDFKSNSAVAWSQKSDFACANAFQNSIIPEDTCFPS | 0.215 | 7860 |

The next lines start with the values.

| EC50 [nM] | Top (MFI) | Binder |
| --- | --- | --- |
| 0.184 | 8330 | T8311-U14T2.G25R-1.uIgG1 (bispecific antibody, Symmetric 2+2 format G25R, human IgG1 Fc; PD-L1 x 4-1BB; also called T8311-1) heavy: not shown light 1: SYELTQPPSVSVSPGQTASITCSGSELPKRYAYWYQQKPGQSIVRVIYKDSERPSGISERFSGSSSGNTATLTISGTQAMDEADYYCSSTYGDRKLPIFGGGTKLTVLGQPKAAPSVTLFPPSSEELQANKATLVCLISDFYPGAVTVAWKADSSPVKAGVETTTPSKQSNNKYAASSYLSLTPEQWKSHKSYSCQVTHEGSTVEKTVAPTECS light 2: SYVLTQPPSVSVAPGQTARMTCGGDNIGIKIVHWYQQKAGQAPVLVVYDDNDRPSGIPDRFSGSNSGNTATLTISRVAAGDEADYYCQVWDRRSDHVVFGGGTKLTVLPDIQNPDPAVYQLRDSKSSDKSVCLFTDFDSQTQVSQSKDSDVYITDKCVLDMRSMDFKSNSAVAWSQKSDFACANAFQNSIIPEDTFFPSPESS |
| 0.153 | 8130 | T8311-U14T2.G25R-49.uIgG1 (bispecific antibody, also called T8311-49) heavy: not shown light 1: SYELTQPPSVSVSPGQTASITCSGSELPKRYAYWYQQKPGQSIVRVIYKDSERPSGISERFSGSSSGNTATLTISGTQAMDEADYYCSSTYGDRKLPIFGGGTKLTVLGQPKAAPSVTLFPPSSEELQANKATLVCLISDFYPGAVTVAWKADSSPVKAGVETTTPSKQSNNKYAASSYLSLTPEQWKSHKSYSCQVTHEGSTVEKTVAPTECS light 2: SYVLTQPPSVSVAPGQTARMTCGGDNIGIKIVHWYQQKAGQAPVLVVYDDNDRPSGIPDRFSGSNSGNTATLTISRVAAGDEADYYCQVWDRRSDHVVFGGGTKLTVLPDIQNPDPAVYQLRDSKSSDKSVCLFTDFDSQTQVSQSCDSDVYITDKCVLDMRSMDFKSNSAVAWSQKSDFACANAFQCSIIPEDTFFPS |
| 0.177 | 8150 | T8311-U14T2.G25R-57.uIgG1 (bispecific antibody, also called T8311-57; design 57) heavy: not shown light 1: SYELTQPPSVSVSPGQTASITCSGSELPKRYAYWYQQKPGQSIVRVIYKDSERPSGISERFSGSSSGNTATLTISGTQAMDEADYYCSSTYGDRKLPIFGGGTKLTVLGQPKAAPSVTLFPPSSEELQANKATLVCLISDFYPGAVTVAWKADSSPVKAGVETTTPSKQSNNKYAASSYLSLTPEQWKSHKSYSCQVTHEGSTVEKTVAPTECS light 2: SYVLTQPPSVSVAPGQTARMTCGGDNIGIKIVHWYQQKAGQAPVLVVYDDNDRPSGIPDRFSGSNSGNTATLTISRVAAGDEADYYCQVWDRRSDHVVFGGGTKLTVLPDIQNPDCAVYQLRDSKSSDKSVCLFTDFDSQTQVSQSKDSDVYITDKCVLDMRSMDFKSNSAVAWSQKSDFACANAFQNSIIPECTFFPS |
| 0.179 | 7880 | T8311-U14T2.G25R-61.uIgG1 (bispecific antibody, also called T8311-61; Design-61) heavy: not shown light 1: SYELTQPPSVSVSPGQTASITCSGSELPKRYAYWYQQKPGQSIVRVIYKDSERPSGISERFSGSSSGNTATLTISGTQAMDEADYYCSSTYGDRKLPIFGGGTKLTVLGQPKAAPSVTLFPPSSEELQANKATLVCLISDFYPGAVTVAWKADSSPVKAGVETTTPSKQSNNKYAASSYLSLTPEQWKSHKSYSCQVTHEGSTVEKTVAPTECS light 2: SYVLTQPPSVSVAPGQTARMTCGGDNIGIKIVHWYQQKAGQAPVLVVYDDNDRPSGIPDRFSGSNSGNTATLTISRVAAGDEADYYCQVWDRRSDHVVFGGGTKLTVLPDIQNPDPAVYQLRDSKSSDKSVCLFTDFDSQTQVSQSKDSDVYITDKCVLDMRSMDFKSNSAVAWSQKSDFACANAFQNSIIPEDTFFCS |
